Assay results as given in the supplement of paper PMC10567573.

B1: MTMR15 (parent)
chain: FSPDFTLRNTLKSTSEDSLVKQEC

Variants of: B1
Assay: protein stability index of a GFP-peptide fusion (GPS, HEK-293T) (PSI 1-6); higher = more stable
Settings: c terminus: a fixed tail appended
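Further: lentivirally expressed fusions sorted by FACS into six bins by GFP to DsRed ratio, PSI derived from sequencing read proportions per bin multiplied by bin number.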

Row | Variant | protein stability index
1 | FSPDFTHRNTLKSTSEDSLVKQEC [L7H] | 2.15
2 | FSPDFTTRNTLKSTSEDSLVKQEC [L7T] | 2.75
3 | FSPDFTPRNTLKSTSEDSLVKQEC [L7P] | 2.54
4 | FSPDFTDRNTLKSTSEDSLVKQEC [L7D] | 3.03
5 | FSPDFTCRNTLKSTSEDSLVKQEC [L7C] | 2.25
6 | FSPDFTFRNTLKSTSEDSLVKQEC [L7F] | 2.04
7 | FSPDFTIRNTLKSTSEDSLVKQEC [L7I] | 2.3
8 | FSPDSTLRNTLKSTSEDSLVKQEC [F5S] | 3.19
9 | FSPDTTLRNTLKSTSEDSLVKQEC [F5T] | 3.17
10 | FSPDKTLRNTLKSTSEDSLVKQEC [F5K] | 3.79
11 | FSPDETLRNTLKSTSEDSLVKQEC [F5E] | 4.83
12 | FSPDLTLRNTLKSTSEDSLVKQEC [F5L] | 3.54
13 | FSPDWTLRNTLKSTSEDSLVKQEC [F5W] | 3.6
14 | FSPDVTLRNTLKSTSEDSLVKQEC [F5V] | 3.56
15 | FSPDRTLRNTLKSTSEDSLVKQEC [F5R] | 3.26
16 | FSPDQTLRNTLKSTSEDSLVKQEC [F5Q] | 3.5
17 | FSPDATLRNTLKSTSEDSLVKQEC [F5A] | 3.75
18 | FSPDITLRNTLKSTSEDSLVKQEC [F5I] | 3.65
19 | FSPDPTLRNTLKSTSEDSLVKQEC [F5P] | 3.59
20 | FSPDGTLRNTLKSTSEDSLVKQEC [F5G] | 1.99
21 | FSPDYTLRNTLKSTSEDSLVKQEC [F5Y] | 2.61
22 | FSPDCTLRNTLKSTSEDSLVKQEC [F5C] | 3.42
23 | FSPDDTLRNTLKSTSEDSLVKQEC [F5D] | 4.35
24 | FSPDNTLRNTLKSTSEDSLVKQEC [F5N] | 3.82

Row | Variant | protein stability index
25 | FSPDHTLRNTLKSTSEDSLVKQEC [F5H] | 3.52
26 | FSPDMTLRNTLKSTSEDSLVKQEC [F5M] | 3.62
27 | FSPDFTLQNTLKSTSEDSLVKQEC [R8Q] | 2.62
28 | FSPDFTLHNTLKSTSEDSLVKQEC [R8H] | 1.89
29 | FSPDFTLGNTLKSTSEDSLVKQEC [R8G] | 1.79
30 | FSPDFTLNNTLKSTSEDSLVKQEC [R8N] | 1.58
31 | FSPDFTLWNTLKSTSEDSLVKQEC [R8W] | 2.17
32 | FSPDFTLSNTLKSTSEDSLVKQEC [R8S] | 1.9
33 | FSPDFTLPNTLKSTSEDSLVKQEC [R8P] | 2.67
34 | FSPDFTLENTLKSTSEDSLVKQEC [R8E] | 3.28
35 | FSPDFTLFNTLKSTSEDSLVKQEC [R8F] | 1.89
36 | FSPDFTLKNTLKSTSEDSLVKQEC [R8K] | 1.7
37 | FSPDFTLYNTLKSTSEDSLVKQEC [R8Y] | 2.44
38 | FSPDFTLMNTLKSTSEDSLVKQEC [R8M] | 1.77
39 | FSPDFTLDNTLKSTSEDSLVKQEC [R8D] | 2.68
40 | FSPDFTLCNTLKSTSEDSLVKQEC [R8C] | 2.75
41 | FSPDFTLTNTLKSTSEDSLVKQEC [R8T] | 1.73
42 | FSPDFTLLNTLKSTSEDSLVKQEC [R8L] | 2.36
43 | FSPDFTLVNTLKSTSEDSLVKQEC [R8V] | 2.14
44 | FSPDFTLANTLKSTSEDSLVKQEC [R8A] | 2.01
45 | FSPDFTLINTLKSTSEDSLVKQEC [R8I] | 2.88
46 | FSPDFTLRNTNKSTSEDSLVKQEC [L11N] | 1.94
47 | FSPDFTLRNTCKSTSEDSLVKQEC [L11C] | 2.42
48 | FSPDFTLRNTFKSTSEDSLVKQEC [L11F] | 2.47

Row | Variant | protein stability index
49 | FSPDFTLRNTAKSTSEDSLVKQEC [L11A] | 1.57
50 | FSPDFTLRNTMKSTSEDSLVKQEC [L11M] | 2.31
51 | FSPDFTLRNTKKSTSEDSLVKQEC [L11K] | 2
52 | FSPDFTLRNTGKSTSEDSLVKQEC [L11G] | 2.11
53 | FSPDFTLRNTIKSTSEDSLVKQEC [L11I] | 2.83
54 | FSPDFTLRNTEKSTSEDSLVKQEC [L11E] | 2.25
55 | FSPDFTLRNTHKSTSEDSLVKQEC [L11H] | 1.76
56 | FSPDFTLRNTDKSTSEDSLVKQEC [L11D] | 2.25
57 | FSPDFTLRITLKSTSEDSLVKQEC [N9I] | 2.41
58 | FSPDFTLRETLKSTSEDSLVKQEC [N9E] | 1.72
59 | FSPDFTLRVTLKSTSEDSLVKQEC [N9V] | 2.18
60 | FSPDFTLRPTLKSTSEDSLVKQEC [N9P] | 1.82
61 | FSPDFTLRATLKSTSEDSLVKQEC [N9A] | 1.67
62 | FSPDFTLRTTLKSTSEDSLVKQEC [N9T] | 2.09
63 | FSPDFTLRFTLKSTSEDSLVKQEC [N9F] | 2.7
64 | FSPDFTLRLTLKSTSEDSLVKQEC [N9L] | 2.02
65 | FSPDFTLRRTLKSTSEDSLVKQEC [N9R] | 2.62
66 | FSPDFTLRWTLKSTSEDSLVKQEC [N9W] | 2.62
67 | FSPDFTLRGTLKSTSEDSLVKQEC [N9G] | 1.93
68 | FSPDFTLRCTLKSTSEDSLVKQEC [N9C] | 2.35
69 | FSPDFTLRQTLKSTSEDSLVKQEC [N9Q] | 1.96
70 | FSPDFTLRHTLKSTSEDSLVKQEC [N9H] | 1.57
71 | FSPDFTLRSTLKSTSEDSLVKQEC [N9S] | 2.34
72 | FSPDFTLRYTLKSTSEDSLVKQEC [N9Y] | 3.7

Row | Variant | protein stability index
73 | FSPDFTLRDTLKSTSEDSLVKQEC [N9D] | 1.54
74 | FSPDFTLRKTLKSTSEDSLVKQEC [N9K] | 2.11
75 | FSPDFTLRMTLKSTSEDSLVKQEC [N9M] | 2.64
76 | FSPDFTLRNPLKSTSEDSLVKQEC [T10P] | 1.7
77 | FSPDFTLRNKLKSTSEDSLVKQEC [T10K] | 1.72
78 | FSPDFTLRNYLKSTSEDSLVKQEC [T10Y] | 2.27
79 | FSPDFTLRNWLKSTSEDSLVKQEC [T10W] | 2.32
80 | FSPDFTLRNILKSTSEDSLVKQEC [T10I] | 2.64
81 | FSPDFTLRNSLKSTSEDSLVKQEC [T10S] | 1.82
82 | FSPDFTLRNDLKSTSEDSLVKQEC [T10D] | 1.99
83 | FSPDFTLRNCLKSTSEDSLVKQEC [T10C] | 2.14
84 | FSPDFTLRNQLKSTSEDSLVKQEC [T10Q] | 1.59
85 | FSPDFTLRNVLKSTSEDSLVKQEC [T10V] | 1.76
86 | FSPDFTLRNNLKSTSEDSLVKQEC [T10N] | 1.87
87 | FSPDFTLRNLLKSTSEDSLVKQEC [T10L] | 2.61
88 | FSPDFTLRNELKSTSEDSLVKQEC [T10E] | 2.37
89 | FSPDFTLRNFLKSTSEDSLVKQEC [T10F] | 2.7
90 | FSPDFTLRNHLKSTSEDSLVKQEC [T10H] | 3.86
91 | FSPDFTLRNALKSTSEDSLVKQEC [T10A] | 2.16
92 | FSPDFTLRNMLKSTSEDSLVKQEC [T10M] | 2.11
93 | FSPDFTLRNRLKSTSEDSLVKQEC [T10R] | 2.15
94 | FSPDFTLRNGLKSTSEDSLVKQEC [T10G] | 2.03
